Measured values taken from PMC5895635.

Tests used:
Experiment in all cases: two-hybrid; β-galactosidase activity in yeast strain AH109 with the Yeast β-galactosidase Assay Kit (Thermo Fisher Scientific); pGBKT7 bait and pGADT7 prey; three biological replicates
[1] = target: MnMADS1 (mulberry 'Jinqiang 63' (JQ63) used for vector construction; gene identified in Morus notabilis)
[2] = target: MnMADS33 (mulberry 'Jinqiang 63' (JQ63) used for vector construction; gene identified in Morus notabilis)
[3] = target: MnMADS50 (mulberry 'Jinqiang 63' (JQ63) used for vector construction; gene identified in Morus notabilis)
[4] = target: pGBKT7-53

MnMADS50 (natural protein)
β-galactosidase activity [1]: 15.3 units

MnMADS1 (natural protein)
β-galactosidase activity [2]: 15.1 units
β-galactosidase activity [3]: 16.3 units

MnMADS33 (natural protein)
β-galactosidase activity [1]: 17.5 units

pGADT7-T
β-galactosidase activity [4]: 15.7 units
